# In PMC11931385, “Structural and functional analysis of cancer-associated missense variants in the retinoblastoma protein pocket domain” (The Journal of Biological Chemistry, 2025):
# No end group written: not given here. TMR = tetramethyl rhodamine dye
# T1: Rb^P R668C (human, UniProt P06400 380-788, R668C)
# T1 construct: also called variant 51
# T1 sequence (looked up): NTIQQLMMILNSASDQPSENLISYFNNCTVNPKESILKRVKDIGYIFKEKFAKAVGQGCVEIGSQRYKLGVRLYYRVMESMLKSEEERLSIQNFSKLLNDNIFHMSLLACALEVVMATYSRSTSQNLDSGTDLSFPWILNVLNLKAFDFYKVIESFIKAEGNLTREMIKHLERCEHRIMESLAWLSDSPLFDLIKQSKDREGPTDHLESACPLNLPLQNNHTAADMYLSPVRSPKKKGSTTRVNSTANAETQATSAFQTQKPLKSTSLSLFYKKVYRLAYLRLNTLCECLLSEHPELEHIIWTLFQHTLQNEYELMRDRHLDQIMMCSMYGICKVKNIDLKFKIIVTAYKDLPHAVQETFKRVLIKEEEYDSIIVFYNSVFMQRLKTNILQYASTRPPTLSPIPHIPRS
# T2: Rb^P R621P (human, UniProt P06400 380-788, R621P)
# T2 construct: also called variant 43
# T2 sequence (looked up): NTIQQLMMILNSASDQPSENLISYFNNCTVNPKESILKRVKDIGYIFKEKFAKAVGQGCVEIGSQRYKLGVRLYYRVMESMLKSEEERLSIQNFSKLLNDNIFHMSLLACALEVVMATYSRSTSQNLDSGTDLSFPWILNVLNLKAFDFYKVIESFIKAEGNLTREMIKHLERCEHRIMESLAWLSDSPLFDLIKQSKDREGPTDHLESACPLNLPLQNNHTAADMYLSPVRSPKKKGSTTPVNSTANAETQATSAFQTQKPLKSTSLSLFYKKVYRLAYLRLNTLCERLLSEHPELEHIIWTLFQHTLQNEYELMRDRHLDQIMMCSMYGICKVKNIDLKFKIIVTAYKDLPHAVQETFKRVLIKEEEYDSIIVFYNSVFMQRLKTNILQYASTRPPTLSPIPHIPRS
# T3: Rb^P V654L (human, UniProt P06400 380-788, V654L)
# T3 construct: also called variant 47
# T3 sequence (looked up): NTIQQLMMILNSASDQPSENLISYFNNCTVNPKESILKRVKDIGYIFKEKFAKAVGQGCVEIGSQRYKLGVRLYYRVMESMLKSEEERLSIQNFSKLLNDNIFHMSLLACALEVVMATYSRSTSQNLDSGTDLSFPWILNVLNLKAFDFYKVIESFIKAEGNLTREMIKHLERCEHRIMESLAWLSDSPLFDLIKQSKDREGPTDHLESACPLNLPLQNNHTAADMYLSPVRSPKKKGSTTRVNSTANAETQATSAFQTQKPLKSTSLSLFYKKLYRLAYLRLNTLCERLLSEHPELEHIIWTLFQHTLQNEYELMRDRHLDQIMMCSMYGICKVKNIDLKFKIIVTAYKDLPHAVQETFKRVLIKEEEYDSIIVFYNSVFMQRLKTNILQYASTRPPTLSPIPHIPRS
# T4: Rb^P Q444R (human, UniProt P06400 380-788, Q444R)
# T4 construct: also called variant 4
# T4 sequence (looked up): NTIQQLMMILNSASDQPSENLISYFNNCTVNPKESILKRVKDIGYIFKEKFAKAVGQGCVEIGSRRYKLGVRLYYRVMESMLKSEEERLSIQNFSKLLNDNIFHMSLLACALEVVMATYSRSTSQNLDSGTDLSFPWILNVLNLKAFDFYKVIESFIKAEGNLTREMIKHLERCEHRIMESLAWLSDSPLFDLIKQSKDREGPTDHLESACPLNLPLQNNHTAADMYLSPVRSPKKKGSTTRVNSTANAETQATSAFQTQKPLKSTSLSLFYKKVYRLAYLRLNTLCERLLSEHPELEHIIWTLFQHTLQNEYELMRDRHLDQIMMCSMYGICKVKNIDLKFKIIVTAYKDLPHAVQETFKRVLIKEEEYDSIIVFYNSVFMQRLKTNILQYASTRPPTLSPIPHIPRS
# T5: Rb^P S648T (human, UniProt P06400 380-788, S648T)
# T5 construct: also called variant 46
# T5 sequence (looked up): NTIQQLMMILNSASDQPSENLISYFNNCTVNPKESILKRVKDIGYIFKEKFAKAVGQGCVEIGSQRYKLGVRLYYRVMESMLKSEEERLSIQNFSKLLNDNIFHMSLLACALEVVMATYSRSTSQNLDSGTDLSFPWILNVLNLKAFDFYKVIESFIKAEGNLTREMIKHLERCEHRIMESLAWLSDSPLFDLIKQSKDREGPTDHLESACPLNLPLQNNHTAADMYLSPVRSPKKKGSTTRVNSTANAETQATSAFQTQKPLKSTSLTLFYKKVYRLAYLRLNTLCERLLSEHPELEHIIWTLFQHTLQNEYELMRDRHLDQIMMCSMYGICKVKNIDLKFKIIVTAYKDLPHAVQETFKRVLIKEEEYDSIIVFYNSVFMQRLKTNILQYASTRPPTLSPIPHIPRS
# Columns and labels:
# Assay in all cases: fluorescence polarisation; 37 °C, after the 25 °C reading ramped over 7 min to 37 °C and 2 min incubation; unlabeled Rb^P against 1.5 nM TMR-E2F1^TD or 7.5 nM TMR-E7^LxCxE; 25 mM Tris pH 8.0, 200 mM NaCl, 1 mM DTT, 0.1% Tween-20; apparent Kd
# Conditions in all cases: both partners purified
# Rb^P R668C = biological target: T1, Rb^P R668C
# Rb^P R621P = biological target: T2, Rb^P R621P
# Rb^P V654L = biological target: T3, Rb^P V654L
# Rb^P Q444R = biological target: T4, Rb^P Q444R
# Rb^P S648T = biological target: T5, Rb^P S648T
Binder,Kd (Rb^P R668C) [nM],Kd (Rb^P R621P) [nM],Kd (Rb^P V654L) [nM],Kd (Rb^P Q444R) [nM],Kd (Rb^P S648T) [nM]
"{TMR}-GEGIRDLFDCDFGDLTPLD (also called E2F^TD; source: synthetic peptide, bought: GenScript) [TMR-E2F1^TD, peptide of the E2F1 transactivation domain]",25,83,30,25,58
"DLYCYEQLN (also: TMR label, position not given here, source: synthetic peptide, bought: GenScript) [TMR-E7^LxCxE, LxCxE peptide of the E7 oncoprotein from HPV]",16,32,21,17,14
